Literature values in PMC4468388.
pKd: −log10 of the molar value.

Target: insulin receptor (Homo sapiens) (UniProt P06213)
Chain of UniProt P06213 (P06213 763-1382): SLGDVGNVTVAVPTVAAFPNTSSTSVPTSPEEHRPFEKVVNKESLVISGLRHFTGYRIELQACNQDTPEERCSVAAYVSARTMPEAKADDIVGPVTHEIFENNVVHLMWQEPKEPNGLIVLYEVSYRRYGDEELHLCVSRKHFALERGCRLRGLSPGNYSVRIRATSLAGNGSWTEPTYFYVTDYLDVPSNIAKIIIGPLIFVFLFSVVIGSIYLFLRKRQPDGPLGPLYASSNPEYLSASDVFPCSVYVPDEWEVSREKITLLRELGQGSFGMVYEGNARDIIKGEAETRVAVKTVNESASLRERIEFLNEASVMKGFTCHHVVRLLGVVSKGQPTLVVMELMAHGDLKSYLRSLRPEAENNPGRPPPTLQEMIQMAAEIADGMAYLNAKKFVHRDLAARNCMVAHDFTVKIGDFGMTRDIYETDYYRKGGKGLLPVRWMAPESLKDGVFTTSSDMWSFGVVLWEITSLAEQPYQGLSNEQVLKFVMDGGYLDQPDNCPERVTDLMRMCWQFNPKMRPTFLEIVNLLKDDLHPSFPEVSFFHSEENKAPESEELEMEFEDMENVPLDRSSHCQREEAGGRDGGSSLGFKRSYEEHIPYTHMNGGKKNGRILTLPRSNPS

Chain of insulin (P01308 90-110): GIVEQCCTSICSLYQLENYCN

pKd: > 9.00
Substance: insulin (from UniProt P01308)
